# Measurements from doi:10.1101/2021.10.26.465098.
# pKd: −log10 of the molar value.
# Biological target: HAdV-C5, -D26 and -B35
# Assay: SPR
substance,measurement,value
human neutrophil protein 1 (HNP-1) (from UniProt P59665 65-94) (peptide),pKd,7.12 to 7.43
